Target: T1, His-GFP-JRAB/MICAL-L2 (mouse, UniProt Q3TN34 1-1009)
T1 construct: JRAB/MICAL-L2, mouse; cDNA encoding JRAB/MICAL-L2 subcloned into pcDNAHisMax-GFP; The plasmid encodes the His6-tag followed by GFP, then the protein's cDNA; source: HEK293, transfected, purified (cOmplete resin, Superdex 200)
Assay: recruitment to liposomes seen by confocal microscopy; purified His-GFP-JRAB/MICAL-L2 and His-mCherry-Rab8ADA (150 nM) mixed with PC:PS (7:3) liposomes in 20 mM HEPES-NaOH pH 7.5, 100 mM KCl, 1 mM DTT
Details: both partners purified

T1 sequence (Q3TN34 whole entry): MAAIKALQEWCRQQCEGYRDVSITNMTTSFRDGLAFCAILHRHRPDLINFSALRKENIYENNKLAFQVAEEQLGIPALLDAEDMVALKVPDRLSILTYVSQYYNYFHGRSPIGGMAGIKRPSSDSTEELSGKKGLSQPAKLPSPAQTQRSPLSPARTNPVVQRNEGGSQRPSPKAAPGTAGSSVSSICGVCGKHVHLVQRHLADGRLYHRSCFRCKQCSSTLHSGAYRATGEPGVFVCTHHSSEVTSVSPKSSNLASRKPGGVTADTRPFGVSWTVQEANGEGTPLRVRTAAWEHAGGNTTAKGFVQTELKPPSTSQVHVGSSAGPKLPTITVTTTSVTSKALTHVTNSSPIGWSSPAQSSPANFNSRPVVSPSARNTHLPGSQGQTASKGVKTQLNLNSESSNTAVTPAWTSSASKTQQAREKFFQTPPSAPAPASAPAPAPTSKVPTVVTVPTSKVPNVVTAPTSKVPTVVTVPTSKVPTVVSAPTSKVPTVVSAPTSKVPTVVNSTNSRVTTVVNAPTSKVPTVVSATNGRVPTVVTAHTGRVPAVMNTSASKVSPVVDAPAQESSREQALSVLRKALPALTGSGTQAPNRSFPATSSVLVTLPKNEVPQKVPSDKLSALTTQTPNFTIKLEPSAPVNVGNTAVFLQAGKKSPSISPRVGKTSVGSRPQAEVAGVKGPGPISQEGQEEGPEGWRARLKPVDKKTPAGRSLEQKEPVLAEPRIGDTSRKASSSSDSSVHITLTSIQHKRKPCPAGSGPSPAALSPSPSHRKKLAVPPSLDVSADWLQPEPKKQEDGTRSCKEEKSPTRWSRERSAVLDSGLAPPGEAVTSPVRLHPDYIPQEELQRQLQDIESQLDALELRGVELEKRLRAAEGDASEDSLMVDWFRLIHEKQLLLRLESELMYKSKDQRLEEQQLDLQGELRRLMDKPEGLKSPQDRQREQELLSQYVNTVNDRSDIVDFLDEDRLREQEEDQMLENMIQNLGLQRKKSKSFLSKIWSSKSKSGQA

binding result: binds
B1: His-mCherry-Rab8ADA (natural protein, mouse, UniProt P55258 1-207, looked up)
chain: MAKTYDYLFKLLLIGDSGVGKTCVLFRFSEDAFNSTFISTIGIDFKIRTIELDGKRIKLQIWDTAGLERFRTITTAYYRGAMGIMLVYDITNEKSFDNIRNWIRNIEEHASADVEKMILGNKCDVNDKRQVSKERGEKLALDYGIKFMETSAKANINVENAFFTLARDIKAKMDKKLEGNSPQGSSHGVKITVEQQKRTSFFRCSLL
notes: Rab8A, mouse, dominant-active mutant Q67L; cDNA subcloned into pcDNAHisMax-mCherry; The plasmid encodes the His6-tag followed by mCherry, then the protein's cDNA; Purified from the membrane (pellet) fraction; source: HEK293, transfected, purified from the CHAPS-extracted pellet fraction (Talon resin)

From article PMC8113518, “JRAB/MICAL-L2 undergoes liquid–liquid phase separation to form tubular recycling endosomes” (Communications Biology, 2021)
